Assay results reported in article PMC10530332.

Columns and labels:
[1] = biological target: natural nurse shark UrIg (nurse shark (Ginglymostoma cirratum) (endogenous in nurse shark tissues)); test: non-reducing SDS-PAGE with western blot
[2] = biological target: recombinant UrIg, 4-domain molecule (V-C1-C2-C3) with C-terminal His tag (nurse shark (Ginglymostoma cirratum)); test: SEC
[3] = biological target: recombinant UrIg, 4-domain molecule (V-C1-C2-C3) with C-terminal His tag (nurse shark (Ginglymostoma cirratum)); test: SDS-PAGE, non-reducing against reducing

Substance | stoichiometry N [1] | stoichiometry N [2] | stoichiometry N [3]
natural nurse shark UrIg (natural protein) | 2 |  | 
recombinant UrIg, 4-domain molecule (V-C1-C2-C3) with C-terminal His tag (natural protein) |  | 2 | 2
